# Reference: patent publication US20250361274A1, “PEPTIDE AND PEPTIDE-CONTAINING AGENT” (PEPTIDREAM INC., priority 2022, published 2025)
# Numbered stars: 1 amine (or outer) side, 2 acyl side, 3 side chain; on linkers, the order of the positions; unused ones are H or OH. Bridge positions count the residues as written; N and C are the ends. Square brackets hold non-standard residues; d marks the D form. Side chains are listed from the residue outwards. Ends that are not written are not given here. Peptide text beside a SMILES is read from it. I, II: the chains in the order shown. * marks the point of attachment. ξ: configuration not given here. KCOpipzaa = N6-(4-(carboxymethyl)piperazine-1-carbonyl)-L-lysine, O=C(NCCCC[C@H](N[*:1])C(=O)[*:2])N1CCN(CC(=O)[*:3])CC1; X6 = N=C(N)NCCC[C@H](CC(=O)[C@H](CCCCNC(=O)N1CCN(CC(=O)O)CC1)N[*:2])C(=O)C[C@@H](Cc1ccc(-c2ccccc2)nc1)C(=O)[*:1]; X4 = O=C(O)c1ccc(C[C@H](N[*:1])C(=O)C[C@@H](CO)C(=O)[*:2])cc1; 3Pal(6-Ph) = N[C@@H](Cc1ccc(-c2ccccc2)nc1)C(=O)O; X3 = O=C(C[C@@H](Cc1ccc(F)cc1)C(=O)[*:1])C[*:2]; Phe(4-COOH) = N[C@@H](Cc1ccc(C(=O)O)cc1)C(=O)O; NMePhe(4-Me) = CN[C@@H](Cc1ccc(C)cc1)C(=O)O; Piperazinyl(4-CH2COOH) = O=C(O)CN1CCN(*)CC1; Bip = N[C@@H](Cc1ccc(-c2ccccc2)cc1)C(=O)O; Gly(4-THP) = N[C@H](C(=O)O)C1CCOCC1; cisHyp = O=C(O)[C@@H]1C[C@H](O)CN1; Hyp = O=C(O)[C@@H]1C[C@@H](O)CN1; NMeF = CN[C@@H](Cc1ccccc1)C(=O)O; 4Pal = N[C@@H](Cc1ccncc1)C(=O)O; Aad = N[C@@H](CCCC(=O)O)C(=O)O; Cha = N[C@@H](CC1CCCCC1)C(=O)O; β3hC = N[C@@H](CS)CC(=O)O; X5 = O=C(C[*:1])[*:2]; CO = O=C([*:1])[*:2]; ξC = NC(CS)C(=O)O; βAla = NCCC(=O)O
# How the values were obtained:
# [1] = target: T1, BMP4 (Homo sapiens, UniProt P12644); assay: BMP4 signal transduction inhibitory activity: SMAD1 phosphorylation by BMP4 stimulus, AlphaLISA SureFire, A549 cells; type: cell-based; settings: for aLISA BMP4: A549 cells; for aLIZA BMP4 (0.2 nM) % Inh: SMAD1 phosphorylation by BMP4 stimulus
# T1 sequence (P12644 293-408): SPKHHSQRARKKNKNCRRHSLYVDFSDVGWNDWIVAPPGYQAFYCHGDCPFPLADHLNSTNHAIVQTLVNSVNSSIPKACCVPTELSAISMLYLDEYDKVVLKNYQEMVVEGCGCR
# [2] = target: T2, BMP7 (Homo sapiens, UniProt P18075); assay: BMP7 signal transduction inhibitory activity: SMAD1 phosphorylation by BMP7 stimulus, A549 cells; type: cell-based; settings: for aLISA BMP7: A549 cells; for aLIZA BMP7 (10 nM) % Inh: SMAD1 phosphorylation by BMP7 stimulus, peptide conc. in assay 10, 100, 1000 nM
# T2 sequence (P18075 293-431): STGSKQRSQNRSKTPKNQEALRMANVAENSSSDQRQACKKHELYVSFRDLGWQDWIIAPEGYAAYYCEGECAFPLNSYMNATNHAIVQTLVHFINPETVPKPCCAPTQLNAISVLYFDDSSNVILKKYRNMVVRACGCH
# Summary of the method: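 A549 cells were stimulated with 10 nM BMP7, and the read-out was SMAD1 phosphorylation. Peptides were tested at three concentrations spanning 1 to 1,000 nM, with sets depending on the peptide series. Some peptides were run in eight-point 1/3 dilutions starting from 100 nM or 1,000 nM, with recombinant human Noggin as positive control at matching concentrations.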
# [3] = SMAD1 phosphorylation, peptides of Synthesis 2, peptide 0.02, 0.2, 2 nM
# [4] = 10 nM BMP7, peptides of Synthesis 2, peptide 1, 10, 100 nM
# [5] = inhibition of SMAD1 phosphorylation by BMP4 stimulus, AlphaLISA, class by peptide concentration zone
# [6] = inhibition of SMAD1 phosphorylation by BMP7 stimulus, AlphaLISA, class by peptide concentration zone
# [7] = peptide conc. in assay 0.02, 0.2, 2 nM, class symbols
molecule,measurement,setting,value
"CC(C)[C@@H]1NC(=O)[C@H](Cc2ccc(C(=O)O)cc2)NC(=O)[C@H](C(C)C)NC(=O)[C@H](CCCNC(=N)N)NC(=O)[C@H](CCC(=O)O)NC(=O)CSCC(C(=O)NCC(N)=O)NC(=O)[C@H](CO)CC(=O)[C@H](Cc2ccc(C(=O)O)cc2)NC(=O)[C@H](Cc2ccc(C(=O)O)cc2)NC(=O)[C@H](Cc2ccc(O)cc2)NC(=O)[C@H](Cc2ccc(-c3ccccc3)cc2)NC(=O)[C@@H]2C[C@@H](O)CN2C(=O)[C@H](Cc2ccc(O)cc2)NC(=O)[C@H](CCCCNC(=O)N2CCN(CC(=O)O)CC2)NC(=O)[C@H](Cc2ccc(-c3ccccc3)nc2)CC(=O)[C@H](CCCNC(=N)N)CC(=O)[C@H](CCCCNC(=O)N2CCN(CC(=O)O)CC2)NC1=O (stereo partly drawn) [SEQ ID No. 277, ClAc-E-R-V-F4COO-V-KCOpipzaa-R-3Py6Ph-KCOpipzaa-Y-Hyp-Bph-Y-F4COO-F4COO-S-C-G-NH2] (I: K([CO-Piperazinyl(4-CH2COOH)])Y[Hyp][Bip]Y[Phe(4-COOH)][X4][ξC]G-NH2 / II: ERV[Phe(4-COOH)]V; linker I:8-II:N via X5; linker I:N-II:C via X6)",BMP4 inhibitory activity (in words),[1],same level of the BMP4 inhibitory activity as Noggin
same,aLISA BMP4,[1]; [3],A (showed an inhibitory activity of 50% or more in a zone to which the peptide was added to in an amount of 0.2 nM)
same,aLISA BMP7,[2]; [4],C (showed less than 50% of inhibitory activity in 10 nM-addition zone and showed 50% or more of inhibitory activity in 100 nM-addition zone)
"11 (ARVYVDRFKYPFYFFSCG; not fully specified; MOD_RES 8 F represents (S)-3-(1,1'-Biphenyl-4-yl)-2-aminopropanoic acid(Bph); MOD_RES 12 F represents (S)-3-(1,1'-Biphenyl-4-yl)-2-aminopropanoic acid(Bph); MOD_RES 14 F represents (S)-4-(2-amino-2-carboxyethyl)benzoic acid(F4COO); MOD_RES 15 F represents (S)-4-(2-amino-2-carboxyethyl)benzoic acid(F4COO)) [compound 11]",aLISA BMP4,[1]; [3],A (showed an inhibitory activity of 50% or more in a zone to which the peptide was added to in an amount of 0.2 nM)
same,aLISA BMP7,[2]; [4],C (showed less than 50% of inhibitory activity in 10 nM-addition zone and showed 50% or more of inhibitory activity in 100 nM-addition zone)
47 (Ac-ARVYVDR[Bip]PYP[Bip]Y[Phe(4-COOH)][Phe(4-COOH)]SC[βAla][dE]-OH; thioether (positions not given here); not fully specified (bridges)) [compound 47],aLISA BMP4,[1]; [5],A (showed an inhibitory activity of 50% or more in a zone to which the peptide was added to in an amount of 0.2 nM)
same,aLISA BMP7,[2]; [6],ND (the inhibitory activity was less than 30% at the maximum concentration evaluated)
246 (ERV[4Pal]VDR[3Pal(6-Ph)]SYV[Bip]Y[Phe(4-COOH)][Phe(4-COOH)]SCG-NH2; not fully specified) [compound 246],aLIZA BMP4 (0.2 nM) % Inh,[1]; [7],C (showed less than 30% of inhibitory activity in 0.2 nM-addition zone and showed 30% or more of inhibitory activity in 2 nM-addition zone)
same,aLIZA BMP7 (10 nM) % Inh,[2]; class symbols,"E (showed less than 30% of inhibitory activity in 100 nM-addition zone and showed 30% or more of inhibitory activity in 1,000 nM-addition zone)"
408 (FG[NMeF]G[Bip]GDE[Cha][Aad][NMeF]L[Phe(4-COOH)]C-NH2) [compound 408],aLISA BMP4 (0.2 nM) % inh,"[1]; BMP4 0.2 nM stimulus, peptide conc. in assay 0.2, 2, 20 nM",ND (the inhibitory activity was less than 30% at the maximum concentration evaluated)
same,aLISA BMP7 (10 nM) % inh,"[2]; BMP7 10 nM stimulus, peptide conc. in assay 1, 10, 100 nM",C (showed less than 30% of inhibitory activity in a zone to which the peptide was added in an amount of 1 nM and showed 30% or more of inhibitory activity in 10 nM-addition zone)
53 (Ac-ERVYVDR[Bip]PYP[Bip]Y[Phe(4-COOH)][Phe(4-COOH)]SCG-NH2; thioether (positions not given here); not fully specified (bridges)) [compound 53],aLISA BMP4,[1]; [5],A (showed an inhibitory activity of 50% or more in a zone to which the peptide was added to in an amount of 0.2 nM)
same,aLISA BMP7,[2]; [6],ND (the inhibitory activity was less than 30% at the maximum concentration evaluated)
"289 (ERV[Phe(4-COOH)][Gly(4-THP)][KCOpipzaa]R[3Pal(6-Ph)][KCOpipzaa]Y[Hyp][Bip][4Pal][Phe(4-COOH)][Phe(4-COOH)]SCG-NH2; not fully specified (N-terminus, bridges); also: cyclic peptide, ring not given here) [compound 289]",aLIZA BMP4 (0.2 nM) % inh,"[1]; BMP4 0.2 nM stimulus, peptide conc. in assay 0.02, 0.2, 2 nM, class symbols",C (showed less than 30% of inhibitory activity in 0.2 nM-addition zone and showed 30% or more of inhibitory activity in 2 nM-addition zone)
same,aLIZA BMP7 (10 nM) % inh,"[2]; BMP7 10 nM stimulus, peptide conc. in assay 100, 300, 1000 nM, class symbols",ND (the inhibitory activity was less than 30% at the maximum concentration evaluated)
70 ({CH2CO}-ARVYVDK[Bip]PYP[Bip]Y[Phe(4-COOH)][Phe(4-COOH)]SCG-NH2; thioether N-17; not fully specified) [compound 70],aLISA BMP4,[1]; [5],A (showed an inhibitory activity of 50% or more in a zone to which the peptide was added to in an amount of 0.2 nM)
same,aLISA BMP7,[2]; [6],C (showed less than 50% of inhibitory activity in 10 nM-addition zone and showed 50% or more of inhibitory activity in 100 nM-addition zone)
"117 (EKVYVKRFPYPFYFFSCAE; not fully specified; MOD_RES 2 K represents N6-(4-(Carboxymethyl) piperazine-1-carbonyl)-L-lysine(KCOpipzaa); MOD_RES 6 K represents N6-(4-(Carboxymethyl) piperazine-1-carbonyl)-L-lysine(KCOpipzaa); MOD_RES 8 F represents (S)-3-(1,1'-Biphenyl-4-yl)-2-aminopropanoic acid(Bph); MOD_RES 12 F represents (S)-3-(1,1'-Biphenyl-4-yl)-2-aminopropanoic acid(Bph); MOD_RES 14 F represents (S)-4-(2-amino-2-carboxyethyl)benzoic aci) [compound 117]",aLISA BMP4,"[1]; inhibition of SMAD1 phosphorylation by BMP4 stimulus, peptides of Synthesis 2, classes A-C, ND",C (showed an inhibitory activity of less than 50% in 0.2 nM-addition zone and showed an inhibitory activity of 50% or more in 2 nM-addition zone were defined as B or C)
same,aLISA BMP7,"[2]; inhibition of SMAD1 phosphorylation by BMP7 stimulus, peptides of Synthesis 2, classes A-D, ND",C (showed less than 50% of inhibitory activity in 10 nM-addition zone and showed 50% or more of inhibitory activity in 100 nM-addition zone)
"Cc1ccc(C[C@H]2C(=O)N[C@@H](CC(C)C)C(=O)N3C[C@@H](O)C[C@H]3C(=O)N[C@H](CC(=O)NCCC(=O)N[C@H](CCC(=O)O)C(=O)O)CSCC(=O)C[C@@H](Cc3ccc(F)cc3)C(=O)NCC(=O)N(C)[C@@H](Cc3ccccc3)C(=O)NCC(=O)N[C@@H](Cc3ccc(-c4ccccc4)nc3)C(=O)NCC(=O)N[C@@H](CC(=O)O)C(=O)N[C@@H](CCC(=O)O)C(=O)N[C@@H](CC3CCCCC3)C(=O)N[C@@H](CCCC(=O)O)C(=O)N2C)cc1 [SEQ ID No. 417, ClAc-F4F-G-MeF-G-3Py6Ph-G-D-E-Cha-Hgl-MeF4Me-L-P4Sh-C-bA-de-OH] (G[NMeF]G[3Pal(6-Ph)]GDE[Cha][Aad][NMePhe(4-Me)]L[cisHyp][β3hC][βAla][dE]-OH; linker N-13 via X3)",BMP4 inhibitory activity (in words),[1],does not inhibit signal transduction of BMP 4
same,aLISA BMP4,[1]; [3],A (showed an inhibitory activity of 50% or more in a zone to which the peptide was added to in an amount of 0.2 nM)
same,BMP7 inhibitory activity (in words),[2],same level of the BMP7 inhibitory activity as Noggin
same,aLISA BMP7,[2]; [4],C (showed less than 50% of inhibitory activity in 10 nM-addition zone and showed 50% or more of inhibitory activity in 100 nM-addition zone)
252 (LRVYVDR[3Pal(6-Ph)]SYV[Bip][4Pal][Phe(4-COOH)][Phe(4-COOH)]SCG-NH2; not fully specified) [compound 252],aLIZA BMP4 (0.2 nM) % Inh,[1]; [7],C (showed less than 30% of inhibitory activity in 0.2 nM-addition zone and showed 30% or more of inhibitory activity in 2 nM-addition zone)
same,aLIZA BMP7 (10 nM) % Inh,[2]; class symbols,ND (the inhibitory activity was less than 30% at the maximum concentration evaluated)
24 ({CH2CO}-A[KCOpipzaa]VYV[KCOpipzaa]R[Bip]PYP[Bip]Y[Phe(4-COOH)][Phe(4-COOH)]SCG-NH2; thioether N-17; not fully specified) [compound 24],aLISA BMP4,[1]; [3],A (showed an inhibitory activity of 50% or more in a zone to which the peptide was added to in an amount of 0.2 nM)
same,aLISA BMP7,[2]; [4],C (showed less than 50% of inhibitory activity in 10 nM-addition zone and showed 50% or more of inhibitory activity in 100 nM-addition zone)
